Experimental data reported in US20140223606, “COMPOSITIONS AND METHODS COMPRISING SEQUENCES HAVING MEGANUCLEASE ACTIVITY” (PIONEER HI BRED INTERNATIONAL INC, published 2014).
Changes are numbered by the printed parent chain.

Legend:
Details in all cases: tags: NLS, 6xHis
ZM6.3(3) = biological target: T1, ZM6.3(3) (artificial); assay: cell_activity; yeast 37 C; 28 C: 0
T1 chain: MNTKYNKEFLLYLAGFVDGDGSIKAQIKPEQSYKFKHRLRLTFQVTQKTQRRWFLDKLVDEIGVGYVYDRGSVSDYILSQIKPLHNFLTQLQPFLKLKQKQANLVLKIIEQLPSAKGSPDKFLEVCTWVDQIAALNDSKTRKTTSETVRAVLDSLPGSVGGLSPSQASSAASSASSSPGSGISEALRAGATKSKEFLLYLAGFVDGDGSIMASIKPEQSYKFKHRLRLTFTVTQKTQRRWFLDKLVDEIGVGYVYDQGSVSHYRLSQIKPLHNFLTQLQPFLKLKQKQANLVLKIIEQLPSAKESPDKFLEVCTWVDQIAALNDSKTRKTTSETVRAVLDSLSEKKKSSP
Procedure: (§1) A 3 mL culture of selective media (MP Biomedical) was inoculated with a single colony of the yeast screening strain and grown at 30° C. overnight. On the following day, a 50 ml YPD culture (MP Biomedical) was started with 2 ml of the overnight culture and grown at 30° C. overnight. On the following day, the cells were harvested by centrifugation at 4000 rpm. The cells were resuspended in 100 ml ice cold water and centrifuged again. The cells were then washed in 1.2 M sorbitol, followed by treatment with 2 ml of 10 mM Tris pH 8.0, 1 mM EDTA, 100 mM Lithium acetate, 10 mM DTT, 0.6M sorbitol for 30 minutes at 30° C. with shaking. The cells were recovered by centrifugation, washed in 40 ml 1.2M sorbitol and finally resuspended in 250 microliters of 1.2M sorbitol. 50 microliter aliquots were transferred to test tubes on ice. Up to 5 microliters of DNA (100-500 nanograms) were added. The suspension was transferred to a 0.2 cm electroporation cuvette, on ice. Electroporation was performed with a pulse charge at 1.5 kV, 200 ohms, 25 microF (pulse time of 5 milliseconds). 1 mL YPD media (MP Biomedical) was added and the cells were allowed to recover at 30° C. for 1-2 hr. The cells were centrifuged, resuspended in 100 uL 1M sorbitol and plated on selective media lacking leucine and containing 2% galactose. The resulting yeast colonies were incubated at various temperatures ranging from 22 to 37 degrees Celsius for 7-10 days. I-CreI and meganucleases derived from it have maximal activity at or above 37 degrees Celsius. Screening was performed at a range of temperatures from 22 to 37 degrees in order to observe increases in activity at lower temperatures which are relevant to certain biological systems (eg. plant cells, plant cell cultures, etc). At that time the red/white sectoring phenotype, indicative of meganuclease activity was observed. Colonies with increased white sectoring over the parental meganuclease (indicating colonies expressing a meganuclease with increased meganuclease activity), also referred to as “hits” and sometimes completely white, were isolated for further analysis. […]

ZM6.3 = biological target: T2, ZM6.3 (artificial); assay: cell_activity; yeast 37 C; 28 C: 0
T2 chain: T1 chain with G117E
Procedure: as §1

LIG3-4(B76) = biological target: T3, LIG3-4(B76) (artificial); assay: cell_activity; yeast 30 C; 22 C: 4
T3 chain: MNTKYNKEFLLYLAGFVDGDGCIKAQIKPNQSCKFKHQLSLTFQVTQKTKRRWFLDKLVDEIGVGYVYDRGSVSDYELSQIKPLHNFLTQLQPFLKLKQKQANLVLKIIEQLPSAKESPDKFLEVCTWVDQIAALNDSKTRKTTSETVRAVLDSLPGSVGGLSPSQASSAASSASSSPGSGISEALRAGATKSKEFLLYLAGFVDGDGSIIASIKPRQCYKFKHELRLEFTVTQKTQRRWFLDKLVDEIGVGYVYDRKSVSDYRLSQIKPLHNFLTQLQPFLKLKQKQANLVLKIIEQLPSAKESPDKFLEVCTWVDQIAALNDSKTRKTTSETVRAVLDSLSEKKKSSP
Procedure: (§2) A 3 mL culture of selective media (MP Biomedical) was inoculated with a single colony of the yeast screening strain and grown at 30° C. overnight. On the following day, a 50 ml YPD culture (MP Biomedical) was started with 2 ml of the overnight culture and grown at 30° C. overnight. On the following day, the cells were harvested by centrifugation at 4000 rpm. The cells were resuspended in 100 ml ice cold water and centrifuged again. The cells were then washed in 1.2 M sorbitol, followed by treatment with 2 ml of 10 mM Tris pH 8.0, 1 mM EDTA, 100 mM Lithium acetate, 10 mM DTT, 0.6M sorbitol for 30 minutes at 30° C. with shaking. The cells were recovered by centrifugation, washed in 40 ml 1.2M sorbitol and finally resuspended in 250 microliters of 1.2M sorbitol. 50 microliter aliquots were transferred to test tubes on ice. Up to 5 microliters of DNA (100-500 nanograms) were added. The suspension was transferred to a 0.2 cm electroporation cuvette, on ice. Electroporation was performed with a pulse charge at 1.5 kV, 200 ohms, 25 microF (pulse time of 5 milliseconds). 1 mL YPD media (MP Biomedical) was added and the cells were allowed to recover at 30° C. for 1-2 hr. The cells were centrifuged, resuspended in 100 uL 1M sorbitol and plated on selective media lacking leucine and containing 2% galactose. The resulting yeast colonies were incubated at various temperatures ranging from 22 to 37 degrees Celsius for 7-10 days. I-CreI and meganucleases derived from it have maximal activity at or above 37 degrees Celsius. Screening was performed at a range of temperatures from 22 to 37 degrees in order to observe increases in activity at lower temperatures which are relevant to certain biological systems (eg. plant cells, plant cell cultures, etc). At that time the red/white sectoring phenotype, indicative of meganuclease activity was observed. Colonies with increased white sectoring over the parental meganuclease (indicating colonies expressing a meganuclease with increased meganuclease activity), also referred to as “hits” and sometimes completely white, were isolated for further analysis.

LIG3-4(B78) = biological target: T4, LIG3-4(B78) (artificial); assay: cell_activity; yeast 30 C; 22 C: 4
T4 chain: T3 chain with K50Q, G71P, K345N, K346N
Procedure: as §2

LIG3-4(B75) = biological target: T5, LIG3-4(B75) (artificial); assay: cell_activity; yeast 30 C; 22 C: 4
T5 chain: T3 chain with G71P
Procedure: as §2

B1: ZM6.3 recognition site (dsDNA)
DNA 1: CAGGCTCTCGTAAATGCGCCTG
DNA 2: CAGGCGCATTTACGAGAGCCTG
- activity (ZM6.3(3)): 2 score 0-4
- activity (ZM6.3): 2 score 0-4

B2: LIG3-4 recognition site (dsDNA)
DNA 1: ATATACCTCACACGTACGCGTA
DNA 2: TACGCGTACGTGTGAGGTATAT
- activity (LIG3-4(B76)): 4 score 0-4
- activity (LIG3-4(B78)): 4 score 0-4
- activity (LIG3-4(B75)): 4 score 0-4
